Laboratory results taken from patent US20190382483A1 (OSE IMMUNOTHERAPEUTICS, published 2019).

How the values were obtained:
[1] = biological target: T1, SIRPa variant 1 on human monocytes (homozygote v1/v1) (human, UniProt P78324 31-504); assay: flow cytometry on human monocytes (SIRPa v1/v1)
T1 construct: the target on the cells is SIRPa v1; also called human monocytes v1/v1; SIRPa v1
Experimental: FIG. 7. Binding analysis of antibodies on human monocytes (homozygote for SIRPa variant 1 (v1/v1)). […] Revelation was performed with a PE labeled mouse anti-human Fc mAb on CantoII cytometer, values corresponding to percentage of stained monocytes.

[2] = biological target: T2, Recombinant hSIRPg-His (Sino Biologicals, reference 11828-H08H) (human, UniProt Q9P1W8 29-360); assay: Blitz, hSIRPg-His on Ni-NTA biosensor
T2 construct: Bought recombinant protein; also called human SIRPg recombinant protein; not shown: histidine tail
T2 sequence (Q9P1W8 29-360): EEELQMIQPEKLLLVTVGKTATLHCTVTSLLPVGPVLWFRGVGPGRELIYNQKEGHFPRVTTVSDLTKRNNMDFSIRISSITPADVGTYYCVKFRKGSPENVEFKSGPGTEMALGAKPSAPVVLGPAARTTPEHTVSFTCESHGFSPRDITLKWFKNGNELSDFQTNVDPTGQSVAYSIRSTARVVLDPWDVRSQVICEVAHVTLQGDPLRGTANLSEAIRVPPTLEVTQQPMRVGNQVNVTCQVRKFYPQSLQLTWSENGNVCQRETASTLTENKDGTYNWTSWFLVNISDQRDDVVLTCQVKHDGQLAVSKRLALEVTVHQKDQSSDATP
Experimental: This method was performed with a Blitz (Forté Bio; USA; reference C22-2 No 61010-1). Recombinant hSIRPg-His (Sino Biologicals, Beijing, China; reference 11828-H08H) was immobilized at 10 μg/ml by histidine tail into a Ni-NTA biosensor (Forte Bio; USA; reference 18-0029) for 30 seconds. Then, an antibody was associated at 20 μg/mL for 120 seconds. The dissociation of antibody was made in kinetics buffer for 120 seconds. Analysis of data was made with the Blitz pro 1.2 software, which calculated association constant (ka) and dissociation constant (kd) and determined the affinity constant KD […].

T1 sequence (P78324 31-504 limits assumed, change not shown): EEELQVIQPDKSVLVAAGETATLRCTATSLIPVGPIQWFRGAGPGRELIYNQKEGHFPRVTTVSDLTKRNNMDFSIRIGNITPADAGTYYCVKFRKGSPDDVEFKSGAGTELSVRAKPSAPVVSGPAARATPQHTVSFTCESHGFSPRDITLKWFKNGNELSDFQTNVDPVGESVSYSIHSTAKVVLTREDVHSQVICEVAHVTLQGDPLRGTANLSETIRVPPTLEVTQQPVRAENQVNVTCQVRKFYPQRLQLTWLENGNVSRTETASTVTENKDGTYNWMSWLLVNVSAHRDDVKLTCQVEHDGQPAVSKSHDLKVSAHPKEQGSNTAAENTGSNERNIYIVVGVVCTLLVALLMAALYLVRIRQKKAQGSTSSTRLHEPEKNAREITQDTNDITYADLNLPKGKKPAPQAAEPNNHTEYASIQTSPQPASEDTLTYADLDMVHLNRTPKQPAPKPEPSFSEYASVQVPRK

binding result [1]: binds | binding result [2]: binds
B1: Kwar23 (antibody, V domains shown)
VH: EVQLQQSGAELVKPGASVKLSCTASGFNIKDYYIHWVQQRTEQGLEWIGRIDPEDGETKYAPKFQDKATITADTSSNTAYLHLSSLTSEDTAVYYCARWGAYWGQGTLVTVSS
VL: QIVLTQSPAIMSASPGEKVTLTCSASSSVSSSYLYWYQQKPGSSPKLWIYSTSNLASGVPARFSGSGSGTSYSLTISSMEAEDAASYFCHQWSSYPRTFGAGTKLELK
notes: Commercial antibody (Creative Biolabs, Cat. No TAB-453CT); also called TAB-453CT (Creative Biolabs)
